{
  "source": "IntAct's records for PubMed 16229834",
  "parents": {"B1": {"name": "PRKC apoptosis WT1 regulator protein (Rattus norvegicus (Rat)), Q62627 (parent)", "chain": "MATGGYRSSGSTTDFLEEWKAKREKMRAKQNPVGPGSSGGDPAAKSPAGPLAQTTAAGTSELNHGPAGAAAPAAPGPGALNCAHGSSALPRGAPGSRRPEDECPIAAGAAGAPASRGDEEEPDSAPEKGRSSGPSARKGKGQIEKRKLREKRRSTGVVNIPAAECLDEYEDDEAGQKERKREDAITQQNTIQNEAASLPDPGTSYLPQDPSRTVPGRYKSTISAPEEEILNRYPRTDRSGFSRHNRDTSAPANFASSSTLEKRIEDLEKEVLRERQENLRLTRLMQDKEEMIGKLKEEIDLLNRDLDDMEDENEQLKQENKTLLKVVGQLTR", "partner": "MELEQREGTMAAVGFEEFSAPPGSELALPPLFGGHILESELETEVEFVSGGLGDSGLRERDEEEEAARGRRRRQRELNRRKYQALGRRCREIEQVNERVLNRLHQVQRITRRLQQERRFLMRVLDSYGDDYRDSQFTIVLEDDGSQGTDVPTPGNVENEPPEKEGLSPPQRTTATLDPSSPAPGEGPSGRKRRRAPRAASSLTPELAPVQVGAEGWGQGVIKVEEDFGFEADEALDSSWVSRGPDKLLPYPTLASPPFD"}},
  "data": [
    {"variants_of": "B1", "settings": "with tfpt_rat Tfpt", "values": [
      {"variant": "MATGGYRSSGSTTDFLEEWKAKREKMRAKQNPVGPGSSGGDPAAKSPAGPLAQTTAAGTSELNHGPAGAAAPAAPGPGALNCAHGSSALPRGAPGSRRPEDECPIAAGAAGAPASRGDEEEPDSAPEKGRSSGPSARKGKGQIEKRKLREKRRSTGVVNIPAAECLDEYEDDEAGQKERKREDAITQQNTIQNEAASLPDPGTSYLPQDPSRTVPGRYKSTISAPEEEILNRYPRTDRSGFSRHNRDTSAPANFASSSTLEKRIEDLEKEVLRERQENLRLTRLMQDKEEMIGKAKEEIDLLNRDLDDMEDENEQAKQENKTLLKVVGQATR", "note": "[L295A;L316A;L330A]", "effect of a mutation on the interaction": "disrupting interaction"}
    ]}
  ]
}
